Earlier results as cited in publication PMC8391295.

Biological target: CD4 (Homo sapiens) (UniProt P01730)

Sequence of Prolactin-inducible protein (P12273 29-146): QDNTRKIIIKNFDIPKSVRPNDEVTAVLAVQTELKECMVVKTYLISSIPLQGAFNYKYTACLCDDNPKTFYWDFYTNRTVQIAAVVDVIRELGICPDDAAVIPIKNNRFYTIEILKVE

Q: For “Prolactin-inducible protein (from UniProt P12273)”, which Kd is on record?
A: The Kd was 6 nM.
